Test results from US20260226179A1 (MAB DESIGNS, published 2026).
Positions count from the first letter of the chain named. Where “and” joins values, the source holds several entries; their conditions need not be identical. Equal values may be shown once.

T1: human membrane-bound IL-6R subunit alpha (human, UniProt P08887 20-468)
T1 sequence: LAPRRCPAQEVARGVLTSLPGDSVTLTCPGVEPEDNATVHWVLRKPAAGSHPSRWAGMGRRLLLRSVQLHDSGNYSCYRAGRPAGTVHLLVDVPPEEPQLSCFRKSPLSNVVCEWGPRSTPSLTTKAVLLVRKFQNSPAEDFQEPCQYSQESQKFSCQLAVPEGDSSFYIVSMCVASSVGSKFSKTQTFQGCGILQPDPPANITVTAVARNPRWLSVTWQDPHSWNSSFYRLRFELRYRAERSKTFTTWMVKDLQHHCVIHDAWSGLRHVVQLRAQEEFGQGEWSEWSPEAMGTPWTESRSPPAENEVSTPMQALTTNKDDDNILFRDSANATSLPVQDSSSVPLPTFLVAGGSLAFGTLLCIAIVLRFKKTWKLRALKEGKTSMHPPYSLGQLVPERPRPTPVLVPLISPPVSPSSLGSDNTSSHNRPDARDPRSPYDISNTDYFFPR

T2: human soluble IL-6R (human, UniProt P08887 20-357)
T2 sequence: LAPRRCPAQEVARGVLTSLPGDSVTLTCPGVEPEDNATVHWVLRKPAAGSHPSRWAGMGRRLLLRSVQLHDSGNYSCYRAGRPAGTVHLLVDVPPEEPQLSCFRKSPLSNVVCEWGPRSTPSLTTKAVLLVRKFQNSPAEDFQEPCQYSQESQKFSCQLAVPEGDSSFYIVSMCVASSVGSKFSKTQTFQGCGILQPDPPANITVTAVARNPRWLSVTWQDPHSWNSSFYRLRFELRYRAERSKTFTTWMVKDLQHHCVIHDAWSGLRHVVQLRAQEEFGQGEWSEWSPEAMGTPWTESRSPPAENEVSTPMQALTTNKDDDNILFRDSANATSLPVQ

T3: murine soluble IL-6R (mouse, UniProt P22272 20-347, limits assumed)
T3 sequence: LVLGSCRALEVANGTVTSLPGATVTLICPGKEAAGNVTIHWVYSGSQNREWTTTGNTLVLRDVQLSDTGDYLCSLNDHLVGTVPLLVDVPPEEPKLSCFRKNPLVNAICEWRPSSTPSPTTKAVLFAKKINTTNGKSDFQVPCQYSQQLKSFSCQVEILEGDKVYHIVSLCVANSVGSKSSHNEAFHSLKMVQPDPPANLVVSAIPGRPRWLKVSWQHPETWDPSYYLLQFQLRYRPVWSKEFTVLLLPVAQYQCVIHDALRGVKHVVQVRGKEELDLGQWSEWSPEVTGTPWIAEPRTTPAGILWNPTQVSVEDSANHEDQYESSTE

T4: human soluble IL-6R (human, UniProt P08887 20-357, limits assumed)
T4 sequence: T2 sequence

T5: mouse membrane-bound IL-6R subunit alpha (mouse, UniProt P22272 20-460)
T5 sequence: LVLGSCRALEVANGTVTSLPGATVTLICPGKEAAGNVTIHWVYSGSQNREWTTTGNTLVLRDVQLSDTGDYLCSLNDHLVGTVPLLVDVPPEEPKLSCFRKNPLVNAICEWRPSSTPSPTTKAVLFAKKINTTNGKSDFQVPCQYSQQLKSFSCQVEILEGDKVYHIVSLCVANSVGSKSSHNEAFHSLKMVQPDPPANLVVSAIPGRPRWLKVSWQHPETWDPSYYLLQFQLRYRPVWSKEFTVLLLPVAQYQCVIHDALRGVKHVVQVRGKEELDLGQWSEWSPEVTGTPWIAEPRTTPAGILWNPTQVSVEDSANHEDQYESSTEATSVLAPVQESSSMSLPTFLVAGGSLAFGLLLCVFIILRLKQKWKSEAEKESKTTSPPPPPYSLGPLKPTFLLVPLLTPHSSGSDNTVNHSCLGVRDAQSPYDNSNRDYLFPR

T6: human membrane-bound IL-6R subunit alpha (human, UniProt P08887 20-468)
T6 sequence: T1 sequence

B1: candidate anti-IL-6R Fab clone 09 (Fab, V domains shown)
VH: EVQLVESGGDLVQPGGSLKLSCAASGFTFSNYGMSWVRQTPDKRLELVAAINSNGGSTYYPDSVKGRFTISRDNAKNTLYLQMSSLKSEDTAMYYCARDGNYVSDYWGQGTTLTVSS
VL: DIVLTQSPASLAVSLGQRATISCRASESVDSYGNSFMHWYQQKPGQPPKLLIYLASNLESGVPARFSGSGSRTDFTLTIDPVEADDAATYYCQQNNEDPWTFGGGTKLEIK
B2: anti-IL-6R IgG antibody 19 (C19 antibody, Fab chimerized with human IgG1) (antibody, V domains shown)
VH: EVKLMESGGGLVQPGGSLKLSCAASGFTFSNYGMSWVRQTPDKRLELVAIMNSKGGSTYYPDSVMGRFTISRDNAKNTLYLQMSSLKSEDTAMYYCARDGYYTMDYWGQGTSVTVSS
VL: B1 VL with E27K, Y32F, P47S, K49R, Y53F, W100Y
B3: anti-IL-6R IgG antibody 09 (C09 antibody, Fab chimerized with human IgG1) (antibody, V domains shown)
VH: B1 VH
VL: B1 VL
B4: anti-IL-6R IgG antibody 20 (C20 antibody, Fab chimerized with human IgG1) (antibody, V domains shown)
VH: B1 VH with Q3K, V5M, D10G, A50I, M93I, Y102F
VL: B1 VL with S35R, M37L, H38N, W100Y
B5: anti-IL-6R IgG antibody 12 (C12 antibody, Fab chimerized with human IgG1) (antibody, V domains shown)
VH: B1 VH with Q3K, V5M, D10G, L47W, A50N, K76Q, A97T, Y102F
VL: B1 VL with L15P, H38N, W100Y

Key:
Assay in all cases: cell-based or functional assay
[1] = molecular target: T1, human membrane-bound IL-6R subunit alpha
human soluble IL-6R [2] = molecular target: T2, human soluble IL-6R
human soluble IL-6R [3] = molecular target: T2, human soluble IL-6R; remark: listed apart in the source
[4] = molecular target: T1, human membrane-bound IL-6R subunit alpha; remark: listed apart in the source
human soluble IL-6R [5] = molecular target: T2, human soluble IL-6R; remark: listed apart in the source
murine soluble IL-6R = molecular target: T3, murine soluble IL-6R
human soluble IL-6R [6] = molecular target: T4, human soluble IL-6R
[7] = molecular target: T5, mouse membrane-bound IL-6R subunit alpha
human soluble IL-6R [8] = molecular target: T4, human soluble IL-6R; remark: listed apart in the source
[9] = molecular target: T5, mouse membrane-bound IL-6R subunit alpha; remark: listed apart in the source
[10] = molecular target: T6, human membrane-bound IL-6R subunit alpha; remark: listed apart in the source
[11] = molecular target: Hyper-IL-6 (recombinant fusion protein consisting of IL-6 and soluble IL-6R)
[12] = molecular target: T6, human membrane-bound IL-6R subunit alpha; remark: listed apart in the source
[13] = molecular target: T6, human membrane-bound IL-6R subunit alpha; remark: listed apart in the source
[14] = molecular target: T6, human membrane-bound IL-6R subunit alpha; remark: listed apart in the source
[15] = molecular target: T6, human membrane-bound IL-6R subunit alpha; remark: listed apart in the source

| Binder | Residual STAT3 phosphorylation in HEK293_IL-6R (IL-6 + sIL-6R; combined classical and trans signalling; 1% PE) [1] | Classical:trans signalling ratio intracellular signalling (human soluble IL-6R [2]) | Residual STAT3 phosphorylation in HEK293 (IL-6 + sIL-6R; IL-6 trans signalling; 1% PE) (human soluble IL-6R [2]) | Proliferation in % (Ba/F3_gp130 cells, IL-6 + sIL-6R = 100%; IL-6 trans signalling; 1% PE) (human soluble IL-6R [3]) | Proliferation in % (Ba/F3_gp130_IL-6R cells, IL-6 + sIL-6R = 100%; combined IL-6 classical and trans signalling; 1% PE) [4] | Classical:trans signalling ratio proliferation (human soluble IL-6R [5]) | Proliferation in % of Ba/F3_gp130 cells (10 ng/ml murine IL-6 + 200 ng/ml murine soluble IL-6R = 100%), IgG at 10 µg/ml (murine soluble IL-6R) | STAT3 phosphorylation in % in HEK293 cells (10 ng/ml IL-6 + 200 ng/ml sIL-6R for 30 min = 100%), IgG at 1 µg/ml (human soluble IL-6R [6]) | Proliferation in % of Ba/F3_gp130_muIL-6R cells (10 ng/ml murine IL-6 = 100%), IgG at 10 µg/ml [7] | IC50 of inhibition of proliferation of Ba/F3_gp130 cells induced by 10 ng/ml IL-6 and 200 ng/ml sIL-6R (human soluble IL-6R [8]) | Proliferation in % of Ba/F3_gp130_muIL-6R cells (10 ng/ml murine IL-6 + 200 ng/ml murine soluble IL-6R = 100%, mixed signalling), IgG at 10 µg/ml [9] | STAT3 phosphorylation in % in HEK293_IL-6R cells (10 ng/ml IL-6 for 30 min = 100%), IgG at 1 µg/ml [10] | IC50 of inhibition of proliferation of Ba/F3_gp130 cells induced by 28 ng/ml Hy-IL-6 [11] | Proliferation in % of Ba/F3_gp130_IL-6R cells with 10 ng/ml IL-6 and 200 ng/ml sIL-6R (mixed signalling), IgG at 1 µg/ml [12] | Proliferation in % of Ba/F3_gp130_IL-6R cells with 10 ng/ml IL-6 and 200 ng/ml sIL-6R (mixed signalling), IgG at 10 µg/ml [12] | IC50 for inhibition of IL-6 classical signalling-induced proliferation [13] | Proliferation in % of Ba/F3_gp130_IL-6R cells (10 ng/ml IL-6 = 100%), IgG at 1 µg/ml [14] | Proliferation in % of Ba/F3_gp130_IL-6R cells (10 ng/ml IL-6 = 100%), IgG at 10 µg/ml [14] | STAT3 phosphorylation in % in HEK293_IL-6R cells (10 ng/ml IL-6 + 200 ng/ml sIL-6R = 100%, mixed signalling), IgG at 1 µg/ml [15] |
| --- | --- | --- | --- | --- | --- | --- | --- | --- | --- | --- | --- | --- | --- | --- | --- | --- | --- | --- | --- |
| B1 | 83% | 2.2 ratio | 38% | 69.8% | 91.6% | 1.3 ratio |  |  |  |  |  |  |  |  |  |  |  |  |  |
| B2 |  |  |  |  |  |  | 108% | 6.9% | 105% | 1210 ng/ml and 8 nM | 116% | 89.5% | 755 ng/ml and 5 nM | 104% | 95.2% | > 53 nM | 100% | 93.1% | 98.4% |
| B3 |  |  |  |  |  |  | 104% | 20% | 104% | 5260 ng/ml and 35 nM | 106% | 69.7% | 4130 ng/ml and 28 nM | 101% | 97.6% | > 53 nM | 100% | 94% | 102% |
| B4 |  |  |  |  |  |  | 86.2% | 0.2% | 108% | 531 ng/ml and 3.5 nM | 114% | 86.9% | 304 ng/ml and 2 nM | 94.7% | 88.6% | > 53 nM | 92.6% | 87.6% | 88.1% |
| B5 |  |  |  |  |  |  | 106% | 4% | 102% | 863 ng/ml and 5.8 nM | 114% | 97.8% | 748 ng/ml and 5 nM | 94.3% | 87.6% | > 53 nM | 94.3% | 92.2% | 99.9% |
